According to US20140241984A1 (UNITED ARAB EMIRATES UNIVERSITY, published 2014):

Key:
A-beta fibrils = target: T1, A-beta fibrils (UniProt P05067 672-713, limits assumed); assay: dot blot
T1 construct: Amyloid fibrils of A-beta spotted in the dot blot; also called β-amyloid
Protocol: (§1) The membranes were blocked with 5% skimmed milk in PBST (PBS containing 0.05% Tween) and incubated for 1 h at room temperature. […] The membranes were washed and incubated with either 1/20000 diluted goat anti-mouse IgG-HRP (Jackson ImmunoResearch) or 1/10000 diluted goat anti-rabbit IgG-HRP (Jackson Immunoresearch) for 1 h at room temperature. The blots were then developed with Super signal West Pico chemiluminescent substrate.
(§2) C) To test the cross reactivity of our conformational monoclonal antibodies to different fragments of α-synuclein. […] The membranes were washed before incubating with either 1/20000 diluted goat anti-mouse IgG-HRP conjugate (Jackson Immunoresearch) or 1/300000 diluted chicken anti-goat IgG-HRP conjugate (Santa Cruz Biotechnology) for 1 h at room temperature. The blots were then developed with Super signal West Pico chemiluminescent substrate.

A-beta monomers = target: T2, A-beta monomers (UniProt P05067 672-713, limits assumed); assay: dot blot
T2 construct: also called β-amyloid monomers
Protocol: as §1, §2

IAPP fibrils = target: T3, IAPP fibrils (UniProt P10997 34-70); assay: dot blot
T3 construct: Amyloid fibrils of IAPP spotted in the dot blot; also called islet amyloid polypeptide
T3 peptide (looked up): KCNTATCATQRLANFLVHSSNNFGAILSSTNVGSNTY
Protocol: as §1, §2

IAPP monomers = target: T4, IAPP monomers (UniProt P10997 34-70); assay: dot blot
T4 peptide (looked up): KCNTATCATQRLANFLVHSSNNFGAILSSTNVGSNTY
Protocol: as §1, §2

β-synuclein fibrils = β-synuclein fibrils (UniProt Q16143 1-134); assay: dot blot
Protocol: as §1, §2

β-synuclein monomers = β-synuclein monomers (UniProt Q16143 1-134); assay: dot blot
Protocol: as §1, §2

γ-synuclein fibrils = γ-synuclein fibrils (UniProt O76070 1-127); assay: dot blot
Protocol: as §1, §2

γ-synuclein monomers = γ-synuclein monomers (UniProt O76070 1-127); assay: dot blot
Protocol: as §1, §2

fibrils of NAC (61-95) = target: T5, fibrils of NAC (61-95) (human); assay: dot blot
T5 construct: also called NAC region (61-95) (F)
Protocol: as §1, §2

fibrils of NAC (61-78) = target: T6, fibrils of NAC (61-78) (human); assay: dot blot
T6 construct: also called NAC (61-78) (F)
T6 peptide: EQVTNVGGAVVTGVTAVA
Protocol: as §1, §2

[1] = target: T7, α-synuclein peptide 1 (1-14) (human); assay: pepscan ELISA
T7 construct: also called Peptide No. 1
T7 peptide: MDVFMKGLSKAKEG
Protocol: (§3) To confirm the pepscan results using dot blot the mAbs were also tested by Pepscan using ELISA. […] The plate was washed with PBST and 50 μl of substrate (SuperSignal ELISA Femto Maximum Sensitivity Substrate, Thermo Scientific) was added and immediately read the plate using Victor X3 microtiter plate reader. After the ELISA signals were measured, the plate was also exposed onto X-ray film to develop the spots.

[2] = target: T8, α-synuclein peptide 2 (8-21) (human); assay: pepscan ELISA
T8 construct: also called Peptide No. 2
T8 peptide: LSKAKEGVVAAAEK
Protocol: as §3

[3] = target: T9, α-synuclein peptide 3 (15-28) (human); assay: pepscan ELISA
T9 construct: also called Peptide No. 3
T9 peptide: VVAAAEKTKQGVAE
Protocol: as §3

[4] = target: T10, α-synuclein peptide 6 (36-49) (human); assay: pepscan ELISA
T10 construct: also called Peptide No. 6
T10 peptide: GVLYVGSKTKEGVV
Protocol: as §3

[5] = target: T11, α-synuclein peptide 7 (43-56) (human); assay: pepscan ELISA
T11 construct: also called Peptide No. 7
T11 peptide: KTKEGVVHGVATVA
Protocol: as §3

[6] = target: T12, α-synuclein peptide 8 (50-63) (human); assay: pepscan ELISA
T12 construct: also called Peptide No. 8
T12 peptide: HGVATVAEKTKEQV
Protocol: as §3

[7] = target: T13, α-synuclein peptide 9 (57-70) (human); assay: pepscan ELISA
T13 construct: also called Peptide No. 9
T13 peptide: EKTKEQVTNVGGAV
Protocol: as §3

[8] = target: T14, α-synuclein peptide 10 (64-77) (human); assay: pepscan ELISA
T14 construct: also called Peptide No. 10
T14 peptide: TNVGGAVVTGVTAV
Protocol: as §3

[9] = target: T15, α-synuclein peptide 11 (71-84) (human); assay: pepscan ELISA
T15 construct: also called Peptide No. 11
T15 peptide: VTGVTAVAQKTVEG
Protocol: as §3

[10] = target: T16, α-synuclein peptide 12 (78-91) (human); assay: pepscan ELISA
T16 construct: also called Peptide No. 12
T16 peptide: AQKTVEGAGSIAAA
Protocol: as §3

[11] = target: T17, α-synuclein peptide 13 (85-98) (human); assay: pepscan ELISA
T17 construct: also called Peptide No. 13
T17 peptide: AGSIAAATGFVKKD
Protocol: as §3

[12] = target: T18, α-synuclein peptide 14 (92-105) (human); assay: pepscan ELISA
T18 construct: also called Peptide No. 14
T18 peptide: TGFVKKDQLGKNEE
Protocol: as §3

[13] = target: T19, α-synuclein peptide 15 (99-112) (human); assay: pepscan ELISA
T19 construct: also called Peptide No. 15
T19 peptide: QLGKNEEGAPQEGI
Protocol: as §3

[14] = target: T20, α-synuclein peptide 16 (106-119) (human); assay: pepscan ELISA
T20 construct: also called Peptide No. 16
T20 peptide: GAPQEGILEDMPVD
Protocol: as §3

[15] = target: T21, α-synuclein peptide 17 (113-126) (human); assay: pepscan ELISA
T21 construct: also called Peptide No. 17
T21 peptide: LEDMPVDPDNEAYE
Protocol: as §3

[16] = target: T22, α-synuclein peptide 18 (120-133) (human); assay: pepscan ELISA
T22 construct: also called Peptide No. 18
T22 peptide: PDNEAYEMPSEEGY
Protocol: as §3

β-synuclein fibrils, sequence (Q16143 whole entry): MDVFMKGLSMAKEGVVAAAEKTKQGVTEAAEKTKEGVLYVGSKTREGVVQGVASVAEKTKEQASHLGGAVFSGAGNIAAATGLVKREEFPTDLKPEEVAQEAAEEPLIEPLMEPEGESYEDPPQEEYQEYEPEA
β-synuclein monomers, sequence (Q16143 whole entry): as above
γ-synuclein monomers, sequence (O76070 whole entry): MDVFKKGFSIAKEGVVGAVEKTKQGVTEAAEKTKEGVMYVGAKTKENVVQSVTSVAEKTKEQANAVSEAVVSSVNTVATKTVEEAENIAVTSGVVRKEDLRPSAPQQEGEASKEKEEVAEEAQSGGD
γ-synuclein fibrils, sequence (O76070 whole entry): as above

B1: Syn-O4 (antibody, IgG1, V domains shown)
VH: EVQLVESGGGLVQPKGSLKLSCAASGFTFNTYAMHWVRQAPGKGLEWVARIRSKSSNYATYYADSVKDRFTISRDDSQSMLYLQMNNLKTEDTAMYYCVRPLKWYFDVWGTGTTVTVSS
VL: QIVLTQSPAILSASPGEKVTMTCSASSTVNYMHWYQQKSGTSPKIWIYDTSKLASGVPARFSGSGSWTSYSLTISSMEAEDAATYYCQQWNSNPPTFGAGTKLELK
notes: same VH and VL as Syn-O1, Syn-O2, Syn-O3; also called mAb Syn-O4
binding result (A-beta fibrils): no binding (tested: 50 ng/ml antibody, 50 ng spotted)
binding result (A-beta monomers): no binding (tested: 50 ng/ml antibody, 50 ng spotted)
binding result (IAPP fibrils): no binding (tested: 50 ng/ml antibody, 50 ng spotted)
binding result (IAPP monomers): no binding (tested: 50 ng/ml antibody, 50 ng spotted)
binding result (β-synuclein fibrils): no binding (tested: 50 ng spotted)
binding result (β-synuclein monomers): no binding (tested: 50 ng spotted)
binding result (γ-synuclein fibrils): no binding (tested: 50 ng spotted)
binding result (γ-synuclein monomers): no binding (tested: 50 ng spotted)
binding result (fibrils of NAC (61-95)): no binding (tested: 50 ng spotted)
binding result (fibrils of NAC (61-78)): no binding (tested: 50 ng spotted)
binding result [1]: no binding (tested: 100 ng/ml antibody, 500 ng/well peptide)
binding result [2]: no binding (tested: 100 ng/ml antibody, 500 ng/well peptide)
binding result [3]: no binding (tested: 100 ng/ml antibody, 500 ng/well peptide)
binding result [4]: no binding (tested: 100 ng/ml antibody, 500 ng/well peptide)
binding result [5]: no binding (tested: 100 ng/ml antibody, 500 ng/well peptide)
binding result [6]: no binding (tested: 100 ng/ml antibody, 500 ng/well peptide)
binding result [7]: no binding (tested: 100 ng/ml antibody, 500 ng/well peptide)
binding result [8]: no binding (tested: 100 ng/ml antibody, 500 ng/well peptide)
binding result [9]: no binding (tested: 100 ng/ml antibody, 500 ng/well peptide)
binding result [10]: no binding (tested: 100 ng/ml antibody, 500 ng/well peptide)
binding result [11]: no binding (tested: 100 ng/ml antibody, 500 ng/well peptide)
binding result [12]: no binding (tested: 100 ng/ml antibody, 500 ng/well peptide)
binding result [13]: no binding (tested: 100 ng/ml antibody, 500 ng/well peptide)
binding result [14]: no binding (tested: 100 ng/ml antibody, 500 ng/well peptide)
binding result [15]: no binding (tested: 100 ng/ml antibody, 500 ng/well peptide)
binding result [16]: no binding (tested: 100 ng/ml antibody, 500 ng/well peptide)
